The target in test [1] is T1, myosin light chain (chicken) (UniProt P02612).
T1 sequence: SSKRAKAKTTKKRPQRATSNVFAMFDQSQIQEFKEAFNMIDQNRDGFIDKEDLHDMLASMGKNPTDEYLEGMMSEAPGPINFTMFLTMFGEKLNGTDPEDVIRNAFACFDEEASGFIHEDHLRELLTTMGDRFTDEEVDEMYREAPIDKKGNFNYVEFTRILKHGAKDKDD

The values below come from patent US5906819.

B1: GST-Rho-kinase (enzyme)
chain: PTGKMPGAPEAVSGDGAGASRQRKLEALIRDPRSPINVESLLDGLNPLVLDLDFPALRKNKNIDNFLNRYEKIVKKIRGLQMKAEDYDVVKVIGRGAFGEVQLVRHKASQKVYAMKLLSKFEMIKRSDSAFFWEERDIMAFANSPWVVQLFCAFQDDKYLYMVMEYMPGGDLVNLMSNYDVPEKWAKFYTAEVVLALDAIHSMGLIHRDVKPDNMLLDKHGHLKLADFGTCMKMDETGMVHCDTAVGTPDYISPEVLKSQGGDGYYGRECDWWSVGVFLFEMLVGDTPFYADSLVGTYSKIMDHKNSLCFPEDAEISKHAKNLICAFLTDREVRLGRNGVEEIKQHPFFKNDQWNWDNIRETAAPVVPELSSDIDSSNFDDIEDDKGDVETFPIPKAFVGNQLPFIGFTYYRENLLLSDSPSCKENDSIQSRKNEESQEIQKKLYTLEEHLSTEIQAKEELEQKCKSVNTRLEKVAKELEEEITLRKNVESTLRQLEREKALLQHKNAEYQRKADHEADKKRNLENDVNSLKDQLEDLKKRNQNSQIS
Take B1: the apparent Km for myosin light chain in test [1] was 0.91 µM. This molecule yielded a specific activity with S6 peptide as a substrate (mol per minute per 1 mol GST-Rho-kinase) with S6 peptide of 41. For the same molecule, the phosphorylation of intact myosin (mol phosphorylation per 1 mol myosin) in the test with intact myosin (chicken) was determined as 1.
